Laboratory results as given in PMC10062202.

Substrate: CC(=O)O
Experiment: purified protein
Settings: 5 mM ATP, 2.5 mM CoA, 6 mM MgCl2, pH 7.5, 37 °C, His-tagged

B1: atACS (Arabidopsis acetyl-CoA synthetase) (Arabidopsis thaliana) (protein)
chain: ASEENDLVFPSKEFSGQALVSSPQQYMEMHKRSMDDPAAFWSDIASEFYWKQKWGDQVFSENLDVRKGPISIEWFKGGITNICYNCLDKNVEAGLGDKTAIHWEGNELGVDASLTYSELLQRVCQLANYLKDNGVKKGDAVVIYLPMLMELPIAMLACARIGAVHSVVFAGFSADSLAQRIVDCKPNVILTCNAVKRGPKTINLKAIVDAALDQSSKDGVSVGICLTYDNSLATTRENTKWQNGRDVWWQDVISQYPTSCEVEWVDAEDPLFLLYTSGSTGKPKGVLHTTGGYMIYTATTFKYAFDYKSTDVYWCTADCGWITGHSYVTYGPMLNGATVVVFEGAPNYPDPGRCWDIVDKYKVSIFYTAPTLVRSLMRDDDKFVTRHSRKSLRVLGSVGEPINPSAWRWFFNVVGDSRCPISDTWWQTETGGFMITPLPGAWPQKPGSATFPFFGVQPVIVDEKGNEIEGECSGYLCVKGSWPGAFRTLFGDHERYETTYFKPFAGYYFSGDGCSRDKDGYYWLTGRVDDVINVSGHRIGTAEVESALVLHPQCAEAAVVGIEHEVKGQGIYAFVTLLEGVPYSEELRKSLVLMVRNQIGAFAAPDRIHWAPGLPKTRSGKIMRRILRKIASRQLEELGDTSTLADPSVVDQLIALADV
Km: 180 ± 30 µM
kcat: 15.05 ± 0.65 s⁻¹
